Assay results as given in patent US20240279345A1, “ALPHA 5 BETA 1 INTEGRIN BINDING AGENTS AND USES THEREOF” (PASITHEA THERAPEUTICS CORP., priority 2021, published 2024).
Each block holds one molecule with its values, some of them ahead of it.

Assays:
[1] = target: purified recombinant human α5β1 integrin heterodimer, 6×His tagged (rh-α5β1; Acro Biosystems, cat. no. IT1-H52W5) (human) (UniProt P08648); assay: ELISA, inhibition of rh-α5β1-His binding to coated FN, isotype control (data normalised to it)
[2] = target: purified recombinant human α5β1 integrin heterodimer (rh-α5β1; Acro Biosystems, cat. no. IT1-H52W5) (human) (UniProt P08648); assay: Conformation assay ELISA: plate coated with 12G10, soluble 12G10 dilution series premixed with His-tagged rh-α5β1 and 0.5 mM MnCl2, captured α5β1 detected by anti-6xHis; competitor on the plate: 12G10 itself
[3] = target: T1, purified recombinant human α5β1 integrin heterodimer (rh-α5β1; Acro Biosystems, cat. no. IT1-H52W5) (human, UniProt P08648 42-995; P05556 21-728); assay: FN-blocking ELISA
T1 construct: Bought protein; 6×His tagged; also called rh-α5β1-6×His tagged protein; His-tagged-α5β1
Description: Following 1 hour at RT, the wells were washed 3 times, incubated with biotinylated Anti-6×His-Tag Ab (Invitrogen, Carlsbad, CA, cat. no. MAI-21315-BTIN) at 1:1000 in Standard Diluent for 1 hour, washed 3 times, incubated for 30 minutes with poly-HRP Streptavidin (Thermo Fisher Scientific, Waltham, MA, cat. no. N200), washed 4 times, incubated with TMB substrate (Thermo Fisher Scientific, Waltham, MA, cat. no. N301) for 2-5 minutes, followed by addition of ELISA Stop Solution (Invitrogen, Carlsbad, CA, cat. no. SS04). Absorbance 450 nm was measured. Data points were normalized to the isotype Control Ab values at each concentration and reported as % Absorbance 450 nm normalized to Control Ab. Non-linear regression analysis was used to fit curves (4-parameter) to the data using GraphPad Prism version 9.0.2 (GraphPad Software, LLC, San Diego, CA).

[4] = target: T1, purified recombinant human α5β1 …; assay: Conformation assay ELISA: plate coated with 12G10, antibody dilution series premixed with His-tagged rh-α5β1 and 0.5 mM MnCl2, captured α5β1 detected by anti-6xHis; competitor on the plate: 12G10
Description: Plates were then washed 3 times with Wash Buffer (1× Tris Buffered Saline containing 0.05% Tween20), then blocked with 2% BSA in 1×TBS for 2 hours at room temperature (RT). […] After 1 hour at RT, the wells were washed 3 times, incubated with biotinylated Anti-6×His-Tag Ab (Invitrogen, Carlsbad, CA, cat. no. MAI-21315-BTIN) at 1:1000 in Standard Diluent for 1 hour, washed 3 times, incubated for 30 minutes with poly-HRP Streptavidin (Thermo Fisher Scientific, Waltham, MA, cat. no. N200), washed 3 times, incubated with TMB substrate (Thermo Fisher Scientific, Waltham, MA, cat. no. N301) for 2-5 minutes, followed by addition of ELISA Stop Solution (Invitrogen, Carlsbad, CA, cat. no. SS04). Absorbance 450 nm was measured.

[5] = target: T2, rh-α5β1 in active conformation (binding to 12G10) (Homo sapiens, UniProt P05556+P08648); assay: 12G10 conformation assay (α5β1 integrin binding to 12G10); settings: human IgG4 chimeric antibodies; 0.5 mM MnCl2
T2 construct: purchased Acro Biosystems IT1-H52W5
Description: A Nunc MaxiSorp Flat-Bottom 96-well plate (Invitrogen, Waltham, MA, cat. no. 44-2404-21) was coated with 12G10 antibody at 2 μg/mL in 0.2M carbonate-bicarbonate buffer, pH9.4 (Thermo Scientific, Rockford, IL, cat. No. 28382) by incubation overnight at 4° C. Plates were then washed 3 times with Wash Buffer (1× Tris Buffered Saline containing 0.05% Tween20), then blocked with 2% BSA in 1×TBS for 2 hours at room temperature (RT). The human IgG4 chimeric versions of the antibodies were diluted in Standard Diluent (2% BSA, 1×TBS, 0.05% Tween20) containing 0.05 μg/mL rh-α5β1-6×His tagged protein (Acro Biosystems, Newark, DE, cat. no. IT1-H52W5) and 0.5 mM MnCl2 (TEKnova, Hollister, CA, cat. no. M0350) to generate a 7 point 1:5 antibody dilution series ranging from 10,000 ng/mL to 0.64 ng/mL. In addition to human IgG4 chimeric antibodies A-15B08, C-14D12 and A2-7A05, three other antibodies tested included IgG4 isotype control (human IgG4, Kappa, anti-fluorescein Ab00102-13.0, Absolute Antibody, Wilton, UK), anti-integrin alpha-5 clone SNAKA51 (MilliporeSigma, St. Louis, MO, cat. no. MABT201) known to induce integrin alpha-5 into an active conformation, and finally the 12G10 antibody itself which can directly compete with the 12G10 bound to the MaxiSorp plate. For the assays, 100 μL of the antibody dilution series, His-tagged-α5β1 mixture was added to the wells after the blocking solution was removed and wells were washed 3 times. […] Absorbance 450 nm was measured. Data points were normalized to the absorbance of the well containing no antibody for each dilution series and reported as Percent Binding. […]

rh-α5β1 = rh-α5β1 (Homo sapiens, UniProt P05556+P08648); assay: Competition binding studies by Biolayer Interferometry (epitope groups); settings: for Response (nm) / % Response: secondary mAb pre-mixed with 20 nM rh-α5β1; for % Response: relative to antigen alone
Description: Epitope analysis via competition binding studies was performed using Biolayer Interferometry (BLI) on the 6 antibodies selected as described in Example 5. The anti-α5β1 FN blocking antibodies A2-7A05, C-14D12 and A-15B08 were immobilized on sensors and incubated with each of the other antibodies that had been preincubated with rh-α5β1, to determine whether this antibody-antigen association prevents or allows binding to the antibody on the sensor. The magnitude of observed binding (response) was compared to binding of antigen alone under the same conditions. If the overall response was greater than 120% of antigen binding alone, then the antibodies can pair with each other. If response was less than 80% of response of antigen binding alone, then the antibodies block each other. The protocol was as follows: preincubate the panel of antibodies with antigen (1 hr). Equilibrate the sensor (30 seconds (s))-->Load lead Ab on the sensor (700s)--->Quench (480s)--->Read baseline (480s)-->measure preincubated Ab+Ag association with loaded sensor (600s).

[6] = target: T3, binding of α5β1 integrin to fibronectin (FN) (Homo sapiens, UniProt P05556+P08648); assay: Quantitative FN inhibition (FN-blocking) assay in ELISA format; format: biochemical; settings: by ELISA
T3 construct: purchased Acro Biosystems IT1-H52W5
Description: To determine whether the 9 unique hybridoma clones selected as described in Example 4 were able to inhibit the binding of α5β1 integrin to fibronectin (FN), the antibodies were first purified from hybridoma supernatants by Protein A chromatography, protein concentrations measured by BCA assay (Pierce™ BCA Protein Assay Kit; Thermo Fisher Scientific, Waltham, MA, cat. no. 23225) and then tested in a quantitative FN inhibition assay in an ELISA format.
Immulon4 HBX ELISA 96-well plates were coated with FN by incubation overnight at 4° C. with 2.5 μg/mL human FN (R&D Systems, Minneapolis, MN 55413, cat. no. 1918-FN) in 1×PBS (0.01M phosphate buffer and 0.154M NaCl, pH 7.4). Plates were then washed 3 times with Wash Buffer (1× Tris Buffered Saline containing 0.05% Tween20), blocked with 2% BSA in 1×TBS for 2 hours at room temperature (RT). Antibodies were diluted in Standard Diluent (2% BSA, 1×TBS, 0.05% Tween20) containing 0.1 μg/mL rh-α5β1-6×His tagged protein (Acro Biosystems, Newark, DE, cat. no. IT1-H52W5), to generate an 11 point 1:3 antibody dilution series ranging from 10,000 ng/mL to 0.17 ng/mL. Isotype control antibody (Control Ab; Ms IgG2a EMD Millipore Corp, Billerica, MA, cat. no. PP102) was used to normalize data across different assay runs. For the assays, 100 uL of the antibody dilution series/His-tagged-α5β1 mixture was added to the wells after the blocking solution was removed and wells were washed 3 times. Following 1 hour at RT, the wells were washed 3 times, incubated with biotinylated Anti-6×His-Tag Ab (Invitrogen, Carlsbad, CA, cat. no. MAI-21315-BTIN) at 1:1000 in Standard Diluent for 1 hour, washed 3 times, incubated for 30 minutes with poly-HRP Streptavidin (Thermo Fisher Scientific, Waltham, MA, cat. no. N200), washed 4 times, incubated with TMB substrate (Thermo Fisher Scientific, Waltham, MA, cat. no. N301) for 2-5 minutes, followed by addition of ELISA Stop Solution (Invitrogen, Carlsbad, CA, cat. no. SS04). Absorbance 450 nm was measured. Data points were normalized to the isotype Control Ab values at each concentration and reported as % Absorbance 450 nm normalized to Control Ab. Non-linear regression analysis was used to fit curves (4-parameter) to the data using GraphPad Prism version 9.0.2 (GraphPad Software, LLC, San Diego, CA).
Freeze-thaw stability was tested on a small aliquot of each chimera antibody by overnight storage at −80° C. followed by thaw on ice, repeated three times. […] IC50s were calculated by non-linear regression analysis curve-fitting (4-parameter) of the ELISA data (FIG. 5) using GraphPad Prism version 9.0.2 (GraphPad Software, LLC, San Diego, CA). […]

Molecule: 12G10 (mouse anti-human integrin beta1/CD29 antibody, Novus Biologicals, cat. no. NB100-63255)
IC50 (read off the curve) [2]: 0.08 µg/mL

B1: A-15B08 IgG4 Chimera (antibody, V domains shown)
VH: QVQLKESGPGLVAPSQSLSITCTISGFSLTSYGVHWVRQPPGKGLEWLVVIWSDGSTTYNSTLKSRLSISKDNSKSQVFFKMNSLQTDDTAMYYCARHYDYDGDWFAYWGQGTLVTVSA
VL: QIVLTQSPAIMSASLGERVTMTCTASSRVSSNSLHWYQQKPGSSPKLWIYSTSNLASGVPARFSGSGSGTSYSLTISSMEAEDAATYYCHQYLRSPPTFGGGTKLEIK
notes: heavy chain glycosylated at the NST site of CDRH2; also called A-15B08 (human IgG4 chimeric antibody)
fold potency (IC50) against the mouse hybridoma antibody it was derived from [3]: ~2 fold
IC50 (read off the curve) [4]: ~0.02 µg/mL

B2: C-14D12 IgG4 Chimera (antibody, V domains shown)
VH: QVQLKESGPDLVAPSQSLSITCTVSGFSLTDYGVHWVRQPPGKGLEWLVVIWSDGSTTYNSALKSRLSITKDTSKRQVFLKMNSLQTDDTAMYYCARHAPSFIRYGSRYDALDYWGQGTSVTVSS
VL: QIVLTQSPAIMSASLGERVTLTCTASSSVTSSFLHWYQQKPGSSPKLWIYSTSNLASGVPARFSGSGSGTSYSLTISSMEAEDAATYYCHQYHRSPPTFGGGTKLEIK
notes: also called C-14D12 (human IgG4 chimeric antibody)
fold potency (IC50) against the mouse hybridoma antibody it was derived from [3]: ~2 fold
IC50 (read off the curve) [4]: ~0.02 µg/mL

The next lines start with the values.

% Max Inhibition [1]: 0%
Molecule: Isotype control antibody (Ms IgG2a, EMD Millipore, cat. no. PP102)

reduction of α5β1 integrin binding to 12G10 [5]: approximately 50%
binding of rh-α5β1 complexed with antibody to A2-7A05 on the sensor (rh-α5β1; antibody preincubated with rh-α5β1, A2-7A05 immobilized on sensor): able to bind
binding of rh-α5β1 complexed with antibody to A-15B08 on the sensor (rh-α5β1; antibody preincubated with rh-α5β1, A-15B08 immobilized on sensor): not able to bind
Response (nm) (rh-α5β1; immobilized mAb A2-7A05): 0.11 nm
% Response (rh-α5β1; immobilized mAb A2-7A05): 309.19%
Response (nm) (rh-α5β1; immobilized mAb A-15B08): −0.15 nm
% Response (rh-α5β1; immobilized mAb A-15B08): −72.85%
Response (nm) (rh-α5β1; immobilized mAb C-14D12): −0.11 nm
% Response (rh-α5β1; immobilized mAb C-14D12): −50.49%
epitope group (rh-α5β1; two epitope groups among 6 antibodies): second group
class of FN binding blocker [6]: strong blockers of FN binding
B3: C-14D12: anti-α5β1 antibody, VH SEQ ID NO:109, VL SEQ ID NO:110; tested as mouse hybridoma antibody and as human IgG4 chimera (antibody, V domains shown)
VH: QVQLKESGPDLVAPSQSLSITCTVSGFSLTDYGVHWVRQPPGKGLEWLVVIWSDGSTTYNSALKSRLSITKDTSKRQVFLKMNSLQTDDTAMYYCARHAPSFIRYGSRYDALDYWGQGTSVTVSS
VL: QIVLTQSPAIMSASLGERVTLTCTASSSVTSSFLHWYQQKPGSSPKLWIYSTSNLASGVPARFSGSGSGTSYSLTISSMEAEDAATYYCHQYHRSPPTFGGGTKLEIK
modifications: C-14D12 VH Sequence; C-14D12 VL Sequence
notes: tested as mouse hybridoma antibody and as human IgG4 chimera
